Source: publication PMC10080687, “Tautomer-Specific Deacylation and Ω-Loop Flexibility Explain the Carbapenem-Hydrolyzing Broad-Spectrum Activity of the KPC-2 β-Lactamase” (Journal of the American Chemical Society, 2023)

Tests used:
Experiment in all cases: purified protein
Conditions in all cases: acylates Ser70
[1] = test system: C[C@@H](O)[C@H]1C(=O)N2C(C(=O)O)=C(S[C@@H]3CN[C@H](C(=O)N(C)C)C3)[C@H](C)[C@H]12; format: biochemical, Klebsiella pneumoniae
[2] = test system: C[C@@H](O)[C@H]1C(=O)N2C(C(=O)O)=C(S[C@@H]3CN[C@H](C(=O)Nc4cccc(C(=O)O)c4)C3)[C@H](C)[C@H]12; format: biochemical, Klebsiella pneumoniae
[3] = test system: CC(=O)OCC1=C(C(=O)O)N2C(=O)[C@@H](NC(=O)Cc3cccs3)[C@H]2SC1
[4] = test system: C[C@@H](O)[C@H]1C(=O)N2C(C(=O)O)=C(SCCN=CN)C[C@H]12

In the case of KPC-2 (Klebsiella pneumoniae), the Km [1] is reported as 7.1 µM, the kcat [1] is reported as 21 s⁻¹ and the kcat/Km [1] is reported as 3e+06 M⁻¹ s⁻¹. It also gave a Km [2] of 8.6 µM, a kcat [2] of 8 s⁻¹ and a kcat/Km [2] of 920000 M⁻¹ s⁻¹. For the same substance, the Km [3] was 42 µM, the kcat [3] was 110 s⁻¹ and the Km [4] was 72 µM. It also gave a kcat [4] of 22 s⁻¹ and a kcat/Km [4] of 310000 M⁻¹ s⁻¹.
